We go through 7 molecules from patent US20220356245A1 (FORTY SEVEN, published 2022).

Read-outs that look alike come from different tables or passages of the source.

The target of assay [1] is T1, hu-sCD47-6His; extracellular domain of human CD47 antigen with 6His-tag (human).
T1 construct: also called hCD47-his; soluble hCD47
The assay is described as follows: SPR Biacore.
Source text: (§1) An anti-human or anti-mouse IgG (Fc) was first immobilized on the surface of Serie S Sensor Chips CM5 using the human or mouse antibody capture and amine coupling kits, following the manufacturer's instructions (GE Healthcare). […] The mouse, chimerized or humanized antibodies to be tested were then captured onto the appropriate anti-mouse or anti-human IgG surface in all flow cells except flow cell 1 used as control, at concentration and contact time adjusted so that ˜300 RU were captured on the surface. Binding kinetics were studied by passing increasing concentrations of hCD47-his in a series of five 10 minute injections through all flow cells at a rate of 30 μL/min. […] Following the final injection, buffer was passed across each flow cell for 60 minutes (mouse) or 30 minutes (human) to monitor the dissociation of bound antigen. Regeneration of the binding surface was carried out at the end of the cycle by flowing 3 M MgCl₂ for 60 s at 20 μL/min followed by 10 mM glycine-HCl, pH 1.7 for 180 s at 10 μl/min (for human) or by flowing 10 mM glycine-HCl, ph 1.7 for 360 s at 10 μl/min (for mouse). A second cycle with the same antibodies but no antigen was run as a control. Kinetics binding constants were estimated by non-linear fitting of the sensogram data to the 1:1 binding model provided by the Biacore T200 evaluation software.

The target of assay [2] is T2, human CD47 (hCD47) expressed on cells (human, UniProt Q08722 19-323).
T2 construct: Transfected CHO cells or endogenous CD47 of human cells; also called CHO-hCD47; CD47 on Raji cells
The assay is described as follows: flow cytometry, Raji cells.

The target in assay [3] is T1, hu-sCD47-6His; extracellular domain of …. Kind of assay: ELISA, coated glycosylated hCD47-His.
Procedure: (§2) The EC50 and EC95 values were calculated by using the non-linear regression/log (antibody) versus response (four parameters) model of the GraphPad Prism software.
In assay [4] the target is T3, N-deglycosylated soluble hCD47-His (PNGase treated) (human, N-glycans removed with PNGase).
T3 construct: also called deglycosylated-hCD47; N-Deglycosylated hCD47-His
Kind of assay: ELISA; against glycosylated hCD47-His.
Procedure: as §2

For assay [5], the target named is T3, N-deglycosylated soluble hCD47-His …. Kind of assay: ELISA, coated N-deglycosylated hCD47-His.
In assay [6] the target is T2, human CD47 (hCD47) expressed on cells. Kind of assay: flow cytometry, Raji cells, competition with hSIRPα.
Assay [7] has as its target T1, hu-sCD47-6His; extracellular domain of …. The assay is described as follows: ELISA, one-site binding saturation fit, glycosylated hCD47.
Procedure: (§3) The equilibrium binding constant values were calculated by using the binding saturation/one-site binding model of the GraphPad Prism software (mean +/− SD of triplicates).
Assay [8] shares this target. Described as above. This is another data set of the same source.
Procedure: (§4) The Bmax values were calculated by using the binding saturation/one-site binding model of the GraphPad Prism software (mean +/− SD of triplicates).
Assay [9] deals with T3, N-deglycosylated soluble hCD47-His …. The assay is described as follows: ELISA, one-site binding saturation fit, deglycosylated hCD47.
Procedure: as §3
Assay [10] shares this target. The assay is described as above. The source holds these as a separate data set.
Procedure: as §4
Assay [11] deals with T1, hu-sCD47-6His; extracellular domain of …. Kind of assay: SPR Biacore. This is another data set of the same source.
Source text: as §1
Assay [12] deals with T2, human CD47 (hCD47) expressed on cells. Kind of assay: flow cytometry, Raji cells. The source holds these as a separate data set.
Assay [13] has the same target. The assay is described as follows: flow cytometry, Raji cells, competition with hSIRPα. This is another data set of the same source.
For assay [14] the target is unchanged. Kind of assay: flow cytometry on Raji cells, hIgG4 format, delta MFI.
Assay [15] shares this target. The assay is described as follows: flow cytometry on Raji cells, hIgG4 format: inhibition of hSIRPα binding to hCD47.
Assay [16] has the same target. Kind of assay: flow cytometry on Raji cells, hIgG4 format, delta MFI. The source holds these as a separate data set.
For assay [17] the target is unchanged. The assay is described as follows: flow cytometry on Raji cells, hIgG4 format: inhibition of hSIRPα binding to hCD47. This is another data set of the same source.
Assay [18] has as its target T1, hu-sCD47-6His; extracellular domain of …. Kind of assay: SPR Biacore. This is another data set of the same source.
Source text: as §1
The target of assay [19] is T2, human CD47 (hCD47) expressed on cells. Kind of assay: flow cytometry, Raji cells. The source holds these as a separate data set.
Assay [20] addresses T1, hu-sCD47-6His; extracellular domain of …. Kind of assay: SPR Biacore; head read as x 10^-4.
The target of assay [21] is T4, mouse CD47 (mCD47) expressed on CHO cells (mouse, UniProt Q61735 19-303).
T4 construct: whole, on cells; also called CHO-mCD47
T4 sequence (looked up): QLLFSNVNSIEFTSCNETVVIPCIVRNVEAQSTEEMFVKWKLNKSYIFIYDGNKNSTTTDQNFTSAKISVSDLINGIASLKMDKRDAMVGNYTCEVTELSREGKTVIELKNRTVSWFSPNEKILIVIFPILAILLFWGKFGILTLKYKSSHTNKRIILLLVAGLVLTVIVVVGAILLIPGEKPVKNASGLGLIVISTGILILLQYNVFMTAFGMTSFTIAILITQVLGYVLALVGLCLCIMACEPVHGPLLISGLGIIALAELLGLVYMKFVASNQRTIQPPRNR
Kind of assay: flow cytometry, CHO-mCD47 cells (not shown).

Assay [22] has as its target T2, human CD47 (hCD47) expressed on cells. Kind of assay: flow cytometry, Raji cells, competition with hSIRPα. The source holds these as a separate data set.
Assay [23] has the same target. Kind of assay: flow cytometry on Raji cells, hIgG4 format, delta MFI. The source holds these as a separate data set.
For assay [24] the target is unchanged. Kind of assay: flow cytometry on Raji cells, hIgG4 format: inhibition of hSIRPα binding to hCD47. The source holds these as a separate data set.
For assay [25] the target is unchanged. The assay is described as follows: flow cytometry on Raji cells, hIgG4 format, delta MFI. The source holds these as a separate data set.
Assay [26] shares this target. The assay is described as follows: flow cytometry on Raji cells, hIgG4 format: inhibition of hSIRPα binding to hCD47. The source holds these as a separate data set.

B1: hIgG4 chimeric candidate 22 (mouse VH/VL, human Fcγ4-S228P and human Kappa backbone) (antibody, V domains shown)
VH: QVQLQQPGAELVKPGASVKLSCKASGYTFTTYWMHWVKQRPGQGLEWIGMIHPNSGTTNYNEKFKSKATLTVDKSSSSTYMQLSSLTSEDSAVYYCTRSHYYDGHFSYWGQGTLVTVSA
VL: DIVMSQSPSSLAVSAGEKVTMSCKSSQSLLNSRTRKNYLAWYQQKPGQSPKLLIYWASTRESGVPDRFTGSGSGTDFTLTISSVQAEDLAVYYCKQSYNLWTFGGGTRLEIKR
notes: hIgG4-S228P/kappa; also called Chim; 22
On to B1, for which, in assay [1], the Kd was 12.2 nM, the koff was determined as 0.000381 s⁻¹ and the kon worked out at 31200 M⁻¹ s⁻¹. Further, the EC50 in assay [2] is 0.122 µg/mL. For the same molecule, in [3], the midpoint of the response, the EC50, lay at 0.0387 nM and the EC95 was determined as 4.67 nM. In addition, in assay [4], the “EC50 ratio Deglycosylated/Glycosylated” value worked out at 1.1 ratio and the “EC95 ratio Deglycosylated/Glycosylated” value was determined as 1.4 ratio. In assay [5], it took 0.042 nM to reach a half-maximal effect (EC50) and the EC95 was found to be 6.67 nM. Moreover, the IC50 in [6] worked out at 0.14 µg/mL. In [7], this molecule displayed an equilibrium binding constant of 34.4 pM. The molecule further came in with a Bmax in assay [8] of 2.85 OD value. The molecule further showed an equilibrium binding constant in assay [9] of 31.8 pM. This molecule also yielded a Bmax2 in [10] of 2.57 OD value.

B2: h20-H3-L2Y (candidate 20.27), hIgG4-S228P (antibody, V domains shown)
VH: QVQLVQSGAEVKKPGASVKVSCKASGYSFTDYYINWVRQAPGQGLEWMGRIYPGIGNTYYNKKFKGRVTVTRDTSISTAHMELSSLRSDDTAVYYCARGHYGRGMDYWGQGTAVTVSS
VL: DIVMTQSPDSLAVSLGERATINCKSSQSLLNSIDQKNYLAWYQQKPGQPPKLLIYYASTKESGVPDRFSGSGSGTDFTLTISSLQAEDVAVYYCQQHYSTPWTFGGGTKVEIKR
notes: also called H20-VH3-VL2,Y
In assay [11], B2 registered a Kd of 2.06 nM, a koff of 0.000584 s⁻¹ and a kon of 292000 M⁻¹ s⁻¹. Further, the EC50 in assay [12] was determined as 0.0854 µg/mL. The molecule also had an IC50 in assay [13] of 0.101 µg/mL. Further, in assay [14], the “EC50 (read off the curve)” value is roughly 0.1 µg/mL. The “IC50 (read off the curve)” value in assay [15] is roughly 0.2 µg/mL.

B3: h20-H2-L5Y (candidate 20.26), huIgG4_S228P format (antibody, V domains shown)
VH: QVQLVQSGAEVKKPGASVKVSCKASGYSFTDYYINWVRQAPGQGLEWMGRIYPGIGNTYYNKKFKGRVTITRDTSASTAYMELSSLRSEDTAVYYCARGHYGRGMDYWGQGTLVTVSS
VL: DIVMTQSPDSLAVSLGERATINCKSSQSLLNSIDQKNYLAWYQQKPGQPPKLLIYYASTKESGVPDRFSGSGSGTDFTLTISGLQAEDVAVYFCQQHYSTPWTFGGGTKVEIRR
notes: also called H20-VH2-VL5,Y; h2O-H2L5Y
In assay [11], B3 yielded a Kd of 2.32 nM, a koff of 0.000699 s⁻¹ and a kon of 306000 M⁻¹ s⁻¹. This molecule also showed an EC50 in assay [12] of 0.0975 µg/mL. In addition, in [3], it took 0.044 nM to reach a half-maximal effect (EC50) and the EC95 turned out to be 1.33 nM. Besides, in assay [4], the “EC50 ratio Deglycosylated/Glycosylated” value is 2.2 ratio and the “EC95 ratio Deglycosylated/Glycosylated” value came to 8.5 ratio. In addition, in assay [5], the EC50 turned out to be 0.096 nM and the concentration for an effect of 95% (EC95) was determined as 11.3 nM. Also, the IC50 in [13] amounted to 0.113 µg/mL. Further, in assay [7], the equilibrium binding constant was determined as 43.6 pM. Further, the Bmax in assay [8] was found to be 2.85 OD value. The same molecule registered an equilibrium binding constant in [9] of 55.7 pM. In [10], the Bmax2 is 1.97 OD value. In assay [16], the “EC50 (read off the curve)” value was roughly 0.1 µg/mL. The “IC50 (read off the curve)” value in [17] was roughly 0.2 µg/mL.

B4: h20-VH4-VL4 (candidate 20.19) (antibody, human IgG4 S228P, kappa, V domains shown)
VH: QVQLVQSGAEVKKPGSSVKVSCKASGYSFTDYYINWVRQAPGQGLEWMGRIYPGIGNTYYNKKFKGRVTITADKSTSTAYMELSSLRSEDTAVYYCARGHYGRGMDYWGQGTTVTVSS
VL: DIVMTQSPDSLAVSLGERATINCKSSQSLLNSIDQKNYLAWYQQKPGQPPKLLIYFASTKESGVPDRFSGSGSGTDFTLTISSLQAEDVAVYFCQQHYSTPWTFGGGAKVEIKR
notes: hIgG4-S228P/kappa; also called h20-H4-L4
In assay [18], B4 showed a Kd of 4.15 nM and a kon of 179000 M⁻¹ s⁻¹. In [19], this molecule had an EC50 of 0.139 µg/mL. Also, in assay [20], the koff was found to be 0.000685 s⁻¹. The binding result in assay [21] was “no binding”. This molecule registered an IC50 in [22] of 0.192 µg/mL. Further, the “EC50 (read off the curve)” value in assay [23] is roughly 0.1 µg/mL. Also, in assay [24], the “IC50 (read off the curve)” value is roughly 0.3 µg/mL.

B5: h20-VH4-VL5 (candidate 20.20) (antibody, human IgG4 S228P, kappa, V domains shown)
VH: QVQLVQSGAEVKKPGSSVKVSCKASGYSFTDYYINWVRQAPGQGLEWMGRIYPGIGNTYYNKKFKGRVTITADKSTSTAYMELSSLRSEDTAVYYCARGHYGRGMDYWGQGTTVTVSS
VL: DIVMTQSPDSLAVSLGERATINCKSSQSLLNSIDQKNYLAWYQQKPGQPPKLLIYFASTKESGVPDRFSGSGSGTDFTLTISGLQAEDVAVYFCQQHYSTPWTFGGGTKVEIRR
notes: hIgG4-S228P/kappa; also called h20-H4-L5
In assay [18], B5 gave a Kd of 3.5 nM and a kon of 192000 M⁻¹ s⁻¹. The EC50 in assay [19] worked out at 0.136 µg/mL. In addition, the koff in assay [20] stood at 0.000624 s⁻¹. The binding result in assay [21] is “no binding”. In addition, in assay [22], the IC50 was 0.095 µg/mL. In addition, the “EC50 (read off the curve)” value in [25] was roughly 0.1 µg/mL. Moreover, the “IC50 (read off the curve)” value in assay [26] is roughly 0.3 µg/mL.

B6: h20-H4-L4Y (candidate 20.29), hIgG4-S228P (antibody, V domains shown)
VH: QVQLVQSGAEVKKPGSSVKVSCKASGYSFTDYYINWVRQAPGQGLEWMGRIYPGIGNTYYNKKFKGRVTITADKSTSTAYMELSSLRSEDTAVYYCARGHYGRGMDYWGQGTTVTVSS
VL: DIVMTQSPDSLAVSLGERATINCKSSQSLLNSIDQKNYLAWYQQKPGQPPKLLIYYASTKESGVPDRFSGSGSGTDFTLTISSLQAEDVAVYFCQQHYSTPWTFGGGAKVEIKR
notes: also called H20-VH4-VL4,Y
In assay [11], B6 yielded a Kd of 2.61 nM, a koff of 0.000761 s⁻¹ and an on-rate constant (kon) of 306000 M⁻¹ s⁻¹. Also, a half-maximal effect in assay [12] (EC50) was put at 0.147 µg/mL. This molecule came in with an IC50 in assay [13] of 0.181 µg/mL. Also, the “EC50 (read off the curve)” value in assay [23] is roughly 0.1 µg/mL. Further, the “IC50 (read off the curve)” value in [24] is roughly 0.4 µg/mL.

B7: h20-H4-L5Y (candidate 20.30), hIgG4-S228P (antibody, V domains shown)
VH: QVQLVQSGAEVKKPGSSVKVSCKASGYSFTDYYINWVRQAPGQGLEWMGRIYPGIGNTYYNKKFKGRVTITADKSTSTAYMELSSLRSEDTAVYYCARGHYGRGMDYWGQGTTVTVSS
VL: DIVMTQSPDSLAVSLGERATINCKSSQSLLNSIDQKNYLAWYQQKPGQPPKLLIYYASTKESGVPDRFSGSGSGTDFTLTISGLQAEDVAVYFCQQHYSTPWTFGGGTKVEIRR
notes: also called H20-VH4-VL5,Y
In [11], B7 came in with a Kd of 2.82 nM, a koff of 0.000693 s⁻¹ and a kon of 254000 M⁻¹ s⁻¹. Besides, the EC50 in assay [12] is 0.105 µg/mL. The molecule further returned an IC50 in assay [13] of 0.149 µg/mL. Moreover, in assay [25], the “EC50 (read off the curve)” value was roughly 0.1 µg/mL. Besides, the “IC50 (read off the curve)” value in [26] is roughly 0.3 µg/mL.
